{
  "source": "patent US5618675A",
  "about": "“Methods and compositions for detecting lipopolysaccharides using CAP18 fragments” (Panorama Research, Inc., dated 1997)",
  "molecules": {"B1": {"name": "CAP18: cationic protein obtained from rabbit granulocytes, calculated molecular weight 16.6 kD, SEQ ID NO:4 (protein)", "chain": "METHKHGPSLAWWSLLLLLLGLLMPPAIAQDLTYREAVLRAVDAFNQQSSEANLYRLLSMDPQQLEDAKPYTPQPVSFTVKETECPRTTWKLPEQCDFKEDGLVKRCVGTVTRYQAWDSFDIRCNRAQESPEPTGLRKRLRKFRNKIKEKLKKIGQKIQGLLPKLAPRTDY"}, "B2": {"name": "BPI55: holoprotein of bactericidal permeability increasing protein (BPI) (protein, UniProt P17213 32-487, looked up)", "Bactericidal …": "VNPGVVVRISQKGLDYASQQGTAALQKELKRIKIPDYSDSFKIKHLGKGHYSFYSMDIREFQLPSSQISMVPNVGLKFSISNANIKISGKWKAQKRFLKMSGNFDLSIEGMSISADLKLGSNPTSGKPTITCSSCSSHINSVHVHISKSKVGWLIQLFHKKIESALRNKMNSQVCEKVTNSVSSELQPYFQTLPVMTKIDSVAGINYGLVAPPATTAETLDVQMKGEFYSENHHNPPPFAPPVMEFPAAHDRMVYLGLSDYFFNTAGLVYQEAGVLKMTLRDDMIPKESKFRLTTKFFGTFLPEVAKKFPNMKIQIHVSASTPPHLSVQPTGLTFYPAVDVQAFAVLPNSSLASLFLIGMHTTGSMEVSAESNRLVGELKLDRLLLELKHSNIGPFPVELLQDIMNYIVPILVLPRVNEKLQKGFPLPTPARVQLYNVVLQPHQNFLLFGADVVYK"}},
  "key": {"[1]": {"assay": "Anti-coagulant activity of human RNIP (preliminary studies)", "type": "biochemical"}, "[2]": {"tested_on": "human mononuclear cells", "assay": "LPS-induced tissue factor by human mononuclear cells", "type": "cell-based", "settings": "for Δ Units (%): LPS alone 100", "experimental": "Human mononuclear cells were separated from citrated peripheral blood by centrifugation over Sodium-metrizoate-Ficoll (lymphocyte Separation Medium, Japan Antibody Institute, Gumma). The resulting mixed mononuclear cell suspension was washed 3 times with RPMI 1640 media. Cell suspension (1×10^6 /ml) was stimulated with LPS for 16 to 18 hr.\nVeronal buffered saline (VBS) was added to the cell pellet, lysed by 3 cycles of freeze/thaw and sonicated for 10 sec with a hand-held sonicator microbe (Handy Sonic, model UR-20P, Tomy Seiko LTD, Tokyo). Tissue factor activity was tested in modified unactivated partial thromboplastin time (7). One tenth ml of cell lysate (1×10^6 /ml) was preincubated with mouse plasma at 37° C. for 3 min. Then 0.1 ml of 25 mM-CaCl2 which contains phospholipid was added to the mixture and clotting time was measured using a fibrometer (Bio Quest Division, Becton Dickinson, Cokeysville, USA). A standard curve obtained from serial two-fold dilutions of rabbit brain thromboplastic (Simplastin, Ono Pharmaceutical Co.) was used to transpose tissue factor activity into arbitrary tissue factor units (1 μg/ml) suspension of rabbit brain was assigned a value of 1,000 units).\nThe mean tissue factor units+standard error was determined from three to four samples. Student's t test for unpair data was used to determine the statistically significant differences. A two-tailed P value of <0.05 was considered significant.\nS. minnesota SmoothLPS (2 μg/ml) was preincubated with equal volume of\neach LPSbinding protein (28HA) at 37° C. for 45 minutes, and the\nmixture was added to the cells and cultured for 16 hours."}, "[3]": {"tested_on": "galactosamine-sensitized mice", "type": "in vivo", "settings": "CAP18 40 μg IP alone, no galactosamine, no Re-LPS", "text": "Galactosamine sensitizes mice to the lethal effects of LPS by a factor 1000 or more. CAP18 and LPS were mixed and injected IP into sensitized mice. CAP18 can neutralize the lethal effects of LPS in this model of endotoxemia (see Table 8)."}, "[4]": {"tested_on": "rough mutant strain of Proteus mirabilis", "settings": "cited from earlier work"}, "[5]": {"tested_on": "encapsulated E. coli", "settings": "cited from earlier work"}, "[6]": {"tested_on": "wild-type smooth Proteus mirabilis", "settings": "cited from earlier work"}, "[7]": {"settings": "first experiment, LPS 0.1 μg/ml"}, "[8]": {"settings": "second experiment, LPS 0.1 μg/ml"}},
  "data": [
    {"molecule": "human RNIP: human RNIP polypeptide comprising amino acids 134 to 170 of SEQ ID NO:2, Merrifield solid phase synthesis (LLGDFFRKSKEKIGKEFKRIVQRIKDFLRNLVPRTES)", "values": [
      {"measurement": "anti-coagulant activity", "setting": "[1]", "result": "lacks significant anti-coagulant activity"}
    ]},
    {"molecule": "B1", "values": [
      {"measurement": "Inhibition (%)", "setting": "[2]; [7]", "result": 30, "unit": "%"},
      {"measurement": "Tissue Factor, figure in parentheses (relative to unstimulated = 1.0)", "setting": "[2]; first experiment, LPS 0.1 μg/ml, LPS alone 16.6", "result": 9.9},
      {"measurement": "Δ Units (%)", "setting": "[2]; [7]", "result": 70, "unit": "%"},
      {"measurement": "Δ Units", "setting": "[2]; first experiment, LPS 0.1 μg/ml, LPS alone 17118", "result": 12001},
      {"measurement": "Tissue Factor", "setting": "[2]; first experiment, LPS 0.1 μg/ml, LPS alone 18214 ± 4192, RNIP 2 HA units, CAP-18 1 HA unit", "result": "13097 ± 1946 Units × 10^3 /3.6 × 10^4 cells"},
      {"measurement": "Inhibition (%)", "setting": "[2]; [8]", "result": 35, "unit": "%"},
      {"measurement": "Tissue Factor, figure in parentheses (relative to unstimulated = 1.0)", "setting": "[2]; second experiment, LPS 0.1 μg/ml, LPS alone 14.7", "result": 9.9},
      {"measurement": "Δ Units (%)", "setting": "[2]; [8]", "result": 65, "unit": "%"},
      {"measurement": "Δ Units", "setting": "[2]; second experiment, LPS 0.1 μg/ml, LPS alone 6726", "result": 4366},
      {"measurement": "Tissue Factor", "setting": "[2]; second experiment, LPS 0.1 μg/ml, LPS alone 7218 ± 264, HA units HP-1 4, HP-2 2, RNIP 2, CAP-18 1", "result": "4858 ± 1963 Units × 10^3 /3.6 × 10^4 cells"},
      {"measurement": "Tissue Factor, figure in parentheses (relative to unstimulated = 1.0)", "setting": "[2]; second experiment, no LPS", "result": 1.2},
      {"measurement": "Δ Units", "setting": "[2]; second experiment, no LPS", "result": 235},
      {"measurement": "Tissue Factor", "setting": "[2]; second experiment, no LPS, unstimulated 492 ± 75", "result": "583 ± 178 Units × 10^3 /3.6 × 10^4 cells"},
      {"measurement": "Lethality (%) groups of 10 mice", "setting": "[3]", "result": 0, "unit": "%"}
    ]},
    {"molecule": "B2", "values": [
      {"measurement": "growth inhibition", "setting": "[4]", "result": "inhibited the growth"},
      {"measurement": "growth inhibitory activity, reduction over control", "setting": "[5]", "result": "about 100 fold"},
      {"measurement": "growth inhibition", "setting": "[6]", "result": "only the rBPI23 inhibited growth"}
    ]}
  ]
}
